# US12385058B2, “Herbicide tolerance protein, encoding gene thereof and use thereof” (Beijing Dabeinong Biotechnology Co., Ltd., priority 2018, dated 2025)
# Substitutions are numbered along the chain they refer to.
# B1: ALT03: ALT03 protein (362 amino acids), SEQ ID NO: 35; unmutated herbicide tolerant protein (protein)
# chain: METDNVELAQSKRKVVLAEQGSFYIGGRTVTGPGKFDPSKPVIPYSNEGATFYINQMYVNFQAPVRPRGLPLVFWHGGGLTGHIWESTPDGRPGFQTLFVQDRHTVYTIDQPGRGRGNIPTFNGPFGQLEEESIVNTVTGNSSKEGAWVRDRLGPAPGQFFENSQFPRGYEDNYFKEMGFSPSISSDEIVDAVVKLVTHIGPCVLVTHSASGVLGMRVATHAKNVRGIVAYEPATSIFPKGKVPEIPPLADKKSQIFPPFEIQESYFKKLAKIPIQFVFGDNIPKNPKSAYWFLDWWRVTRYAHSLSLEAINKLGGQASLLDLPTAGLRGNTHFPFTDRNNVQVASLLSDFLGKHGLDQNES
# modifications: the amino acid sequence of ALT03
# B2: ALT02: ALT02 protein (369 amino acids), SEQ ID NO: 19; unmutated herbicide tolerant protein (protein)
# chain: METDNVELAQSKRKVVLAEQGSFYIGGRTVTGPGKFDPSKPVIPYSNEGATFYINQMYVNFQAPVRPRGLPLVFWHGGGLTGHIWESTPDGRPGFQTLFVQDRHTVYTIDQPGRGRGNIPTFNGPFGQLEEESIVNTVTGNSSKEGAWVRDRLGPAPGQFFENSQFPRGYEDNYFKEMGFSPSISSDEIVDAVVKLVTHIGPCVLVTHSASGVLGMRVATHAKNVRGIVAYEPATSIFPKGKVPEIPPLADKKSQIFPPFEIQESYFKKLAKIPIQFVFGDNIPKNPKSAYWFLDWWRVTRYAHSLSLEAINKLGGQASLLDLPTAGLRGNTHFPFTDRNNVQVASLLSDFLGKHGLDQNESKLAAALE
# modifications: the amino acid sequence of ALT02
# B3: ALT01: ALT01 protein (398 amino acids), SEQ ID NO: 1; unmutated herbicide tolerant protein (protein, listed as Methylophilus sp.)
# chain: MGTALLTGTSAASPVLAAGTGAIGIATLPLSTATAPAGTAAVGLAGSLALVVLAGGGSPTIGGATVTGPGLPAPSLPVIPTSAGGATPTIAGMTVAPGAPVAPAGLPLVPTHGGGLTGHITGSTPAGAPGPGTLPVGAAHTVTTIAGPGAGAGAIPTPAGPPGGLGGGSIVATVTGASSLGGATVAAALGPAPGGPPGASGPPAGTGAATPLGMGPSPSISSAGIVAAVVLLVTHIGPCVLVTHSASGVLGMAVATHALAVAGIVATGPATSIPPLGLVPGIPPLAALLSGIPPPPGIGGSTPLLLALIPIGPVPGAAIPLAPLSATTPLATTAVTATAHSLSLGAIALLGGGASLLALPTAGLAGATHPPPTAAAAVGVASLLSAPLGLHGLAGAGS
# B4: ALT04M2: herbicide tolerant protein, SEQ ID NO: 59; ALT04 with serine to valine at position 133 (protein)
# chain: MSKRKVVLAEQGSFYIGGRTVTGPGKFDPSKPVIPYSNEGATFYINQMYVNFQAPVRPRGLPLVFWHGGGLTGHIWESTPDGRPGFQTLFVQDRHTVYTIDQPGRGRGNIPTFNGPFGQLEEESIVNTVTGNVSKEGAWVRDRLGPAPGQFFENSQFPRGYEDNYFKEMGFSPSISSDEIVDAVVKLVTHIGPCVLVTHSASGVLGMRVATHAKNVRGIVAYEPATSIFPKGKVPEIPPLADKKSQIFPPFEIQESYFKKLAKIPIQFVFGDNIPKNPKSAYWFLDWWRVTRYAHSLSLEAINKLGGQASLLDLPTAGLRGNTHFPFTDRNNVQVASLLSDFLGKHGLDQ
# modifications: the amino acid sequence of the ALT04M2
# B5: ALT04: ALT04 protein (350 amino acids), SEQ ID NO: 51; unmutated herbicide tolerant protein (protein)
# chain: B4 chain with V133S
# modifications: the amino acid sequence of ALT04
# B6: ALT04M3: herbicide tolerant protein, SEQ ID NO: 63; ALT04 mutated at positions 35, 36, 131, 133 and 137 (protein)
# chain: B4 chain with P35R, Y36A, G131A, G137R
# modifications: the amino acid sequence of the ALT04M3
# How the values were obtained:
# [1] = assay type: biochemical; conditions: for specific enzyme activity, bensulfuron-methyl / specific enzyme activity, chlorimuron-ethyl / specific enzyme activity, metsulfuron-methyl / specific enzyme activity, thifensulfuron-methyl / specific enzyme activity, tribenuron-methyl: 0.2 μg enzyme, 0.2 mM substrate, pH 7.0, 30° C., 20 min
# Experimental: (§1) Each reaction was timed beginning with the addition of reactive enzyme, and was terminated with 1 mL of dichloromethane. The organic phase after delamination was dehydrated with anhydrous sodium sulfate.
# (§2) The above dehydrated reaction solution was blown dry with nitrogen and filtered by adding 1 mL of methanol, and 20 μL of the filtrate was subjected to liquid chromatography-mass spectrometry (LC-MS). High performance liquid chromatography (HPLC) conditions were as follows: mobile phase being methanol:water (80:20, V/V), Zorbax XDB-C18 chromatographic column (3.5 μm, 2.1×50 mm, Agilent, USA), column temperature being room temperature, UV detector, with a detection wavelength of 255 nm, a sample injection volume of 20 μL, and a flow rate of 0.25 mL/min. The primary ion mass spectrometry conditions were as follows: ion detection mode being multi-reactive ion detection; ion polarity being negative ion; ionization mode being electrospray ionization; a capillary voltage of 4000 volts; a dry gas temperature of 330° C., a flow rate of 10 L/min, an atomizing gas pressure of 35 psi, a collision voltage of 135 volts; and a mass scan range of 300-500 m/z. The secondary ion mass spectrometry conditions were as follows: a collision voltage of 90 volts; a mass scanning range of 30-400 m/z, and other conditions being the same as those of the primary ion mass spectrometry. It was identified by LC-MS that the metabolite of thifensulfuron-methyl was thiophene sulfonic acid, and the metabolite of metsulfuron-methyl, chlorimuron-ethyl, bensulfuron-methyl, sulfometuron-methyl or tribenuron-methyl was its corresponding sulfonic acid. The amount of the generated thiophene sulfonic acid (metabolite) was detected using high performance liquid chromatography (HPLC).
# [2] = Degradation of sulfometuron-methyl by purified herbicide tolerant proteins (enzymatic activity, HPLC); assay type: biochemical; conditions: 0.2 μg enzyme, 0.2 mM substrate, pH 7.0, 30° C., 20 min
# Experimental: as §1, §2
Molecule,"specific enzyme activity, bensulfuron-methyl [1]","specific enzyme activity, chlorimuron-ethyl [1]","specific enzyme activity, metsulfuron-methyl [1]","specific enzyme activity, thifensulfuron-methyl [1]","specific enzyme activity, tribenuron-methyl [1]","specific enzyme activity, sulfometuron-methyl [2]","efficiency of degrading bensulfuron-methyl, fold of ALT04 [1]","efficiency of degrading thifensulfuron-methyl, fold of ALT04 [1]"
B1,1.6 µmol/min/mg,2.6 µmol/min/mg,1.9 µmol/min/mg,26.0 µmol/min/mg,1.7 µmol/min/mg,1.8 µmol/min/mg,,
B2,1.8 µmol/min/mg,2.8 µmol/min/mg,2.1 µmol/min/mg,28.8 µmol/min/mg,1.9 µmol/min/mg,2.0 µmol/min/mg,,
B3,1.7 µmol/min/mg,2.7 µmol/min/mg,2.0 µmol/min/mg,27.4 µmol/min/mg,1.8 µmol/min/mg,1.9 µmol/min/mg,,
B4,2.2 µmol/min/mg,8.1 µmol/min/mg,1.1 µmol/min/mg,95.4 µmol/min/mg,9.7 µmol/min/mg,3.2 µmol/min/mg,1.2 fold,3.3 fold
B5,1.5 µmol/min/mg,2.4 µmol/min/mg,1.8 µmol/min/mg,24.7 µmol/min/mg,1.6 µmol/min/mg,1.7 µmol/min/mg,,
B6,0.6 µmol/min/mg,34.6 µmol/min/mg,3.8 µmol/min/mg,16.0 µmol/min/mg,3.0 µmol/min/mg,1.0 µmol/min/mg,,
